In US20050182242A1, “Global analysis of protein activities using proteome chips” (priority 2001, published 2005):

B1: GFD1: yeast GST-HisX6 fusion protein on proteome chip (protein, UniProt Q04839 1-188, looked up)
mRNA transport factor GFD1: MPLESIWADAPDEEPIKKQKPSHKRSNNNKKNNNSRWSNESSSNNKKKDSVNKVKNNKGNHESKTKNKIKETLPREKKPPHSQGKISPVSESLAINPFSQKATEISPPPVSPSKMKTTKTQSKQDTASKMKLLKKKIEEQREILQKTHHKNQQQQVLMDFLNDEGSSNWVDDDEEELILQRLKTSLKI
modifications: GST-His6 tag
notes: yeast GST-HisX6 fusion protein on proteome chip
B2: DFG5: yeast GST-HisX6 fusion protein on proteome chip (protein, UniProt Q05031 27-437, looked up)
Mannan …: MDLDTTSKTSICDATALIQGGMLDYYEGTRYGGTVGMFQSPYYWWHAGEAFGGMLENWFLCENDTYQELLYDALLAQTGSNYDYIPSNQTMVEGNDDQGIWGITVMGAVERNFTDPGDGKPGWLAMVQAVFNTMYSRWDSEHCGGGLRWQIFTWNSGYNYKNTVSNACLFQIAARLGRYTGNTTYLEVAEQVFDWLVDVGYVVLNDTANVFDGAEIDTNCTDITKIEWTYNHGIVLGGLAYMYNATNGTGEWETSLTKILNGAKSYFFKDSIMYESACQDYGTCNTDQRTFKSIFSRMLGLTSVMAPFTRDTIDDLIKTSAEAAAKSCNGGTDGHTCGLNWQKQTNDGYYGLGEQMSALEVIQNLLIHDRPAPYKEDNGGTSKGDANAGMNSSTTNVLQNNLNIKKGDRAG
modifications: GST-His6 tag
notes: as for B1
B3: MPD2: yeast GST-HisX6 fusion protein on proteome chip (protein, UniProt Q99316 23-277, looked up)
Protein disulfide isomerase …: YSEAVTMVKSIEQYFDICNRNDSYTMIKYYTSWCQHCKTLAPVYEELGELYAKKANKDDTPINFLEVNCEFFGPTLCTDLPGFPIIELVKPRTKPLVLPKLDWSSMKFHERLWQRIKTWFNNPKYQLDTSRVVRFEGSRNLKSLSNFIDTVRSKDTEERFIEHIFDDSRNCNEELRSQQLLCKAGKEYYSDTLSKLYGDVNGLEKERRRLEALIKQNGDDLSKEVKEKLKIIRLQLSLLSHIEDQLEDTSSHDEL
modifications: GST-His6 tag
notes: as for B1
B4: CCT8: yeast GST-HisX6 fusion protein on proteome chip (protein, UniProt P47079 1-568, looked up)
T-complex protein 1 subunit …: MSLRLPQNPNAGLFKQGYNSYSNADGQIIKSIAAIRELHQMCLTSMGPCGRNKIIVNHLGKIIITNDAATMLRELDIVHPAVKVLVMATEQQKIDMGDGTNLVMILAGELLNVSEKLISMGLSAVEIIQGYNMARKFTLKELDEMVVGEITDKNDKNELLKMIKPVISSKKYGSEDILSELVSEAVSHVLPVAQQAGEIPYFNVDSIRVVKIMGGSLSNSTVIKGMVFNREPEGHVKSLSEDKKHKVAVFTCPLDIANTETKGTVLLHNAQEMLDFSKGEEKQIDAMMKEIADMGVECIVAGAGVGELALHYLNRYGILVLKVPSKFELRRLCRVCGATPLPRLGAPTPEELGLVETVKTMEIGGDRVTVFKQEQGEISRTSTIILRGATQNNLDDIERAIDDGVAAVKGLMKPSGGKLLPGAGATEIELISRITKYGERTPGLLQLAIKQFAVAFEVVPRTLAETAGLDVNEVLPNLYAAHNVTEPGAVKTDHLYKGVDIDGESDEGVKDIREENIYDMLATKKFAINVATEAATTVLSIDQIIMAKKAGGPRAPQGPRPGNWDQED
modifications: GST-His6 tag
notes: as for B1
B5: CAM1: yeast GST-HisX6 fusion protein on proteome chip (protein, UniProt P29547 2-415, looked up)
Elongation factor 1-gamma 1: SQGTLYANFRIRTWVPRGLVKALKLDVKVVTPDAAAEQFARDFPLKKVPAFVGPKGYKLTEAMAINYYLVKLSQDDKMKTQLLGADDDLNAQAQIIRWQSLANSDLCIQIANTIVPLKGGAPYNKKSVDSAMDAVDKIVDIFENRLKNYTYLATENISLADLVAASIFTRYFESLFGTEWRAQHPAIVRWFNTVRASPFLKDEYKDFKFADKPLSPPQKKKEKKAPAAAPAASKKKEEAKPAATETETSSKKPKHPLELLGKSTFVLDDWKRKYSNEDTRPVALPWFWEHYNPEEYSLWKVTYKYNDELTLTFMSNNLVGGFFNRLSASTKYMFGCLVVYGENNNNGIVGAVMVRGQDYVPAFDVAPDWESYDYAKLDPTNDDDKEFINNMWAWDKPVSVNGEPKEIVDGKVLK
modifications: GST-His6 tag
notes: as for B1
B6: DIN7: yeast GST-HisX6 fusion protein on proteome chip (protein, UniProt Q12086 1-430, looked up)
DNA damage-inducible protein …: MGIPGLLPQLKRIQKQVSLKKYMYQTLAIDGYAWLHRASCACAFELVMNKPTNKYLQFFIKRLQLLKRLKIKPYIVFDGDSLFVKNHTETRRRKKRLENEMIAKKLWSAGNRYNAMEYFQKSVDITPEMAKCIIDYCKLHSIPYIVAPFEADPQMVYLEKMGLIQGIISEDSDLLVFGCKTLITKLNDQGKALEISKDDFSALPENFPLGELSEQQFRNLVCLAGCDYTSGIWKVGVVTAMKIVKRYSEMKDILIQIERTEKLCFSKAFKQQVEFANYAFQYQRVFCPLSNQITTLNNIPKAVTNSHAEIIKIMKCIGSVVERGSGVRKDVINTKNIDHKVHEMIAKGELHPVDMASKLINRERKLKARKLFKVGLLGGESNSFNKKVEQPLVDTQDVLSERENSLDNKNASSIYMTSPAAISGTVPSIF
modifications: GST-His6 fusion tag
notes: as for B1
B7: RPL9B: yeast GST-HisX6 fusion protein on proteome chip (protein, UniProt P51401 1-191, looked up)
Large ribosomal subunit …: MKYIQTEQQIEIPEGVTVSIKSRIVKVVGPRGTLTKNLKHIDVTFTKVNNQLIKVAVHNGDRKHVAALRTVKSLVDNMITGVTKGYKYKMRYVYAHFPINVNIVEKDGAKFIEVRNFLGDKKIRNVPVRDGVTIEFSTNVKDEIVLSGNSVEDVSQNAADLQQICRVRNKDIRKFLDGIYVSHKGFIVEDM
modifications: GST-HisX6 tag
notes: as for B1

What was measured:
Settings in all cases: liposome binding signal on yeast proteome chip, Cy3-streptavidin detection
PI(3,4,5)P3 liposomes = assay: Yeast proteome chip probed with PI(3,4,5)P3 liposomes
Text: (§1) To identify PI-binding proteins in yeast, liposomes were used as probes because the liposome provides the most relevant physiological condition to assay the interactors. Six types of liposomes were used. Each contains phosphatidylcholine (“PC”) with 1% (w/w) N-(biotinoyl)-1,2-dihexadecanoyl-sn-glycero-3-phosphoethanolamine, triethylammonium salt (biotin DHPE). The biotinylated lipid serves as a label that can be detected by Cy3-streptavidin (21). In addition to PC, the five other liposomes contain either 5% (w/w) PI(3)P, PI(4)P, PI(3,4)P2, PI(4,5)P2, or PI(3,4,5)P3 (FIG. 3A).
(§2) The protein-liposome interaction was assayed as follows. Appropriate amounts of each lipid in chloroform were mixed and dried under nitrogen. The lipid mixture was resuspended in TBS buffer by vortexing. The liposomes were created by sonication. Blocked proteome chips were washed three to five times in PBS buffer, and the extra liquid on the glass surface was removed by tapping the slides vertically on a KIMWIPE™. 200 μl of liposome solution was added to the proteome chip and immediately covered by a hydrophobic plastic cover slip (GRACE BIO-LAB™, USA). After trapped air bubbles were removed, the chip was incubated in a humidity chamber at RT for one hour. To remove the cover slip, the chip was immersed into large volume of PBS buffer (50 ml), so that the slip would float away. The chip was then moved to a second PBS bath (>50 ml) and washed 3×5 min with shaking at RT. After removing extra liquid on the surface of the chip, about 100 μl of Cy3 or Cy5 conjugated streptavidin (PIERCE™, USA; 1:2000 to 1:4000 dilution) was added to the surface and covered by a hydrophobic plastic cover slip (GRACE BIO-LABS™, USA). The chip was incubated for greater than 30 min in the dark at RT. The chip was then washed as described above. To completely remove the liquid on the chip, the chip was spun to dryness at 1500-2000 rpm for 5-10 min at RT.
(§3) • 1. S. Fields, Y. Kohara, D. J. Lockhart, Proc. Natl. Acad. Sci. 96, 8825 (1999); A. Goffeau et al., Science 274, 563 (1996). • 2 P. Ross-Macdonald et al., Nature 402, 413 (1999); J. L., DeRisi, V. R. Iyer, P. O. Brown, Science 278, 680 (1997); E. A. Winzeler et al., Science 285, 901 (1999). P. Uetz et al., Nature 403, 623 (2000); T. Ito et al., Proc. Natl. Acad. Sci. USA. 97, 1143 (2000) • 3 H. Zhu, M. Snyder, Curr. Opin. Chem. Biol. 5, 40 (2001). • 4 M. R. Martzen et al., Science 286, 1153 (1999). • 5 H. Zhu et al., Nat. Genet. 26, 283 (2000). • 6 G. MacBeath, S. L. Schreiber, Science 289, 1760 (2000). • 7 A. Caveman, J. Cell Sci. 113, 3543 (2000). • 8 P. Arenkov et al., Anal. Biochem 278, 123 (2000). • 9 D. A. Mitchell, T. K. Marshall, R. J. Deschenes, Yeast 9, 715 (1993). The expression vector pEGH was created by inserting an RGS-HisX6 epitope tag between the GST gene and the polycloning site of pEG(KG). The yeast ORFs were cloned using the strategy described previously (5), except every step was done in a 96-well format. Plasmid DNAs confirmed by DNA sequencing were reintroduced into both yeast (Y258) and E. coli (DH5a). […] 0.1 mM calcium was present in buffers in all subsequent steps. The chip was washed three times with PBS at RT. Cy3-conjugated streptavidin (Jackson IR, USA) (1:5000 dilution) was added to the chip and incubated for 30 min at RT. After extensive washing, the chip was spun dry and scanned using a microarray scanner; the data was subsequently acquired with the GENEPIX™ array densitometry software (Axon, USA). • 12 S. S. Hook, A. R. Means, Annu. Rev. Pharmacol. Toxicol.41, 471 (2001). • 13 M. S. Cyert, R. Kunisawa, D. Kaim, J. Thorner, Proc. Natl. Acad. Sci. USA 88, 7376 (1991). • 14 D. A. Stirling, K. A. Welch, M. J. Stark, EMBO J. 13, 4329 (1994). • 15 F. Bohl, Kruse, EMBO J. 19, 5514 (2000); E. Bertrand et al., Mol. Cell 2, 437 (1998). • 16 D. C. Winter, E. Y. Choe, R. Li, Proc. Nat. Acad Sci. USA 96, 7288 (1999). • 17 C.

[1] = system: phosphatidylcholine (PC) liposomes; assay: Yeast proteome chip probed with PC liposomes
Text: as §1, §2, §3

PI(4)P liposomes = assay: Yeast proteome chip probed with PI(4)P liposomes
Text: as §1, §2, §3

PI(3,4)P2 liposomes = assay: Yeast proteome chip probed with PI(3,4)P2 liposomes
Text: as §1, §2, §3

PI(4,5)P2 liposomes = assay: Yeast proteome chip probed with PI(4,5)P2 liposomes
Text: as §1, §2, §3

Molecule | PI(3, 4, 5)P3 (PI(3,4,5)P3 liposomes) | PC [1] | PI(4)P (PI(4)P liposomes) | PI(3, 4)P2 (PI(3,4)P2 liposomes) | PI(4, 5)P2 (PI(4,5)P2 liposomes)
B1 | 3.38 | 4.99 | −0.22 | −0.78 | –
B2 | 60.98 | 127.66 | 19.81 | 48.66 | –
B3 | 15.07 | 25.24 | 37.45 | 31.71 | 8.71
B4 | 33.97 | 22.30 | 23.52 | 7.53 | –
B5 | 4.16 | 18.49 | 21.99 | −0.16 | 25.69
B6 | 14.06 | 21.42 | 33.75 | 10.05 | 14.59
B7 | −0.45 | 6.46 | 12.85 | 7.38 | 1.96
